Data published in paper PMC9011129.
Substitutions are numbered along the chain they refer to. Read-outs that look alike come from different tables or passages of the source.

B1: RpL30 42-mer (ssRNA)
RNA: CUUUUGCCAUUGUCAGCCGACGAAGUGCUUUAACCCAAACUA
modifications: 5' cap (Vaccinia capping system)
B2: Purine-substituted RpL30 control (ssRNA)
RNA: B1 RNA with C1G, U2A, U3A, U4A, U5A
modifications: 5' cap (Vaccinia capping system)
B3: Non1 42-mer (ssRNA)
RNA: CUUUUUGGAAUACGAAGCUGACACCGCGUGGUGUUUUUGCUU
modifications: 5' cap (Vaccinia capping system)

Columns and labels:
Larp-DM15 [1] = molecular target: T1, Larp-DM15 (Drosophila melanogaster, UniProt Q9VAW5 1330-1481); experiment: EMSA
Larp-DM15 [2] = molecular target: T1, Larp-DM15; experiment: EMSA; remark: listed apart in the source

T1 sequence (Q9VAW5 1330-1481): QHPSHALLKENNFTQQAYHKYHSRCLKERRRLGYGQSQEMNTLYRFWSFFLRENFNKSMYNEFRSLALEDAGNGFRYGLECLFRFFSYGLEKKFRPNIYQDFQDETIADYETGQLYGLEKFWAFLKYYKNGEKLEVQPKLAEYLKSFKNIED

Row | Binder | binding result (Larp-DM15 [1]) | binding result (Larp-DM15 [2])
1 | B1 | binds | –
2 | B2 | no binding | –
3 | B3 | – | binds
